# Measured values as given in the Human Domainome abundance scans (Beltran et al. 2025).
# ± gives the uncertainty stated by the source.
# B1: Chromodomain-helicase-DNA-binding protein 5, residues 411 to 463; numbered along this chain, Q8TDI0 (parent)
# chain: EEDDHMEFCRVCKDGGELLCCDACPSSYHLHCLNPPLPEIPNGEWLCPRCTCP
# Variants of: B1
# Test: abundance fitness (aPCA) (normalised: wild type 0, dead -1); higher = more abundant; growth selection in yeast, the domain comes from the species named
# Details: Homo sapiens
row,Variant,abundance fitness
1,G15N,-0.359 ± 0.12
2,G15R,0.087 ± 0.058
3,G15F,0.079 ± 0.12
4,G15M,-0.165 ± 0.12
5,G15Q,0.047 ± 0.1
6,G15I,-0.112 ± 0.14
7,G15A,0.07 ± 0.084
8,F8A,-0.017 ± 0.066
9,F8R,-0.051 ± 0.045
10,F8T,0.023 ± 0.077
11,F8L,0.015 ± 0.065
12,F8H,-0.163 ± 0.1
13,F8K,-0.409 ± 0.12
14,F8D,-0.138 ± 0.077
15,F8M,-0.131 ± 0.075
16,A23K,0.092 ± 0.093
17,A23F,-0.708 ± 0.32
18,A23C,-0.018 ± 0.14
19,A23D,-0.082 ± 0.12
20,A23R,-0.022 ± 0.088
21,A23Y,0.193 ± 0.074
22,E7F,-0.224 ± 0.17
23,E7I,-0.123 ± 0.074
24,E7R,-0.027 ± 0.074

row,Variant,abundance fitness
1,E7D,0.031 ± 0.085
2,C47T,-0.551 ± 0.12
3,C47S,-0.653 ± 0.048
4,C47Y,-0.929 ± 0.11
5,C47I,-0.009 ± 0.15
6,C47D,-0.678 ± 0.15
7,C47G,-0.533 ± 0.074
8,C47H,-0.235 ± 0.2
9,C47L,-0.716 ± 0.052
10,C47V,-0.808 ± 0.084
11,C47E,-0.853 ± 0.14
12,C47P,-0.899 ± 0.085
13,H5A,-0.26 ± 0.042
14,H5C,-0.319 ± 0.094
15,H5F,0.067 ± 0.053
16,H5S,-0.197 ± 0.047
17,H5I,-0.02 ± 0.067
18,H5Q,-0.028 ± 0.049
19,H5L,-0.223 ± 0.041
20,H5R,-0.089 ± 0.041
21,H5N,0.117 ± 0.064
22,H5Y,-0.058 ± 0.048
23,D3F,0.357 ± 0.045
24,D3A,0.028 ± 0.06

row,Variant,abundance fitness
1,D3E,0.136 ± 0.082
2,R10G,-0.035 ± 0.053
3,R10Q,-0.106 ± 0.11
4,R10V,-0.25 ± 0.065
5,R10N,0.026 ± 0.11
6,R10T,0.012 ± 0.086
7,R10H,-0.028 ± 0.12
8,P53T,-0.083 ± 0.16
9,P53S,-0.153 ± 0.13
10,P25A,0.094 ± 0.07
11,P25M,-0.11 ± 0.077
12,P25I,-0.04 ± 0.1
13,P25N,-0.025 ± 0.079
14,P25W,-0.067 ± 0.072
15,P25S,0.022 ± 0.055
16,P25E,0.054 ± 0.084
17,S27L,-0.039 ± 0.054
18,S27I,-0.345 ± 0.12
19,S27C,-0.035 ± 0.082
20,S27Q,-0.064 ± 0.068
21,S27H,0.026 ± 0.064
22,S27A,0.07 ± 0.073
23,S27P,-0.47 ± 0.064
24,D4N,0.288 ± 0.043

row,Variant,abundance fitness
1,D4F,0.263 ± 0.047
2,D4M,0.156 ± 0.043
3,D4E,-0.131 ± 0.043
4,D4H,0.17 ± 0.044
5,D4W,0.005 ± 0.047
6,D4P,0.024 ± 0.041
7,Y28G,-0.536 ± 0.059
8,Y28T,-0.542 ± 0.063
9,Y28S,-0.679 ± 0.058
10,Y28R,-0.527 ± 0.053
11,Y28N,-0.608 ± 0.13
12,W45G,-0.457 ± 0.045
13,L37R,-0.006 ± 0.049
14,L37T,-0.005 ± 0.071
15,L37Y,-0.109 ± 0.07
16,L37I,-0.023 ± 0.096
17,L37K,-0.201 ± 0.1
18,L37P,-0.113 ± 0.077
19,L37W,-0.109 ± 0.049
20,L37E,-0.041 ± 0.099
21,L37G,-0.232 ± 0.063
22,L37C,-0.299 ± 0.098
23,L37H,0.268 ± 0.094
24,T51S,-0.089 ± 0.046

row,Variant,abundance fitness
1,T51W,-0.346 ± 0.075
2,T51R,-0.035 ± 0.053
3,T51M,-0.296 ± 0.095
4,T51D,0.202 ± 0.099
5,T51F,-0.142 ± 0.12
6,T51C,0.086 ± 0.083
7,T51A,-0.061 ± 0.046
8,E17C,-0.187 ± 0.074
9,E17V,-0.228 ± 0.05
10,E17D,-0.276 ± 0.074
11,E17K,0.007 ± 0.068
12,E17H,-0.138 ± 0.041
13,E17Q,0.032 ± 0.068
14,E17S,-0.21 ± 0.045
15,E17I,-0.102 ± 0.045
16,M6V,-0.077 ± 0.071
17,M6E,-0.14 ± 0.088
18,M6C,-0.069 ± 0.065
19,M6H,-0.279 ± 0.19
20,M6D,-0.228 ± 0.095
21,M6L,-0.121 ± 0.061
22,M6A,0.059 ± 0.074
23,M6W,-0.174 ± 0.076
24,L18Q,-0.415 ± 0.15

row,Variant,abundance fitness
1,L18V,0.065 ± 0.082
2,L18R,-0.084 ± 0.062
3,L18E,-0.812 ± 0.25
4,L18W,-0.972 ± 0.17
5,L18T,-0.076 ± 0.099
6,L18A,-0.769 ± 0.15
7,K13T,-0.311 ± 0.046
8,K13M,-0.18 ± 0.071
9,K13Y,-0.368 ± 0.12
10,K13C,0.021 ± 0.098
11,C24R,-0.392 ± 0.085
12,C24I,-0.886 ± 0.3
13,C24L,-1.15 ± 0.15
14,C24T,-0.464 ± 0.12
15,C24A,-0.637 ± 0.12
16,C9Q,-0.771 ± 0.087
17,C9P,-0.94 ± 0.13
18,C9V,-1.09 ± 0.069
19,L30D,-0.013 ± 0.075
20,L30C,-0.038 ± 0.063
21,L30N,-0.04 ± 0.044
22,L30W,-0.201 ± 0.049
23,L30R,-0.018 ± 0.049
24,L30V,0.019 ± 0.042

row,Variant,abundance fitness
1,L30I,-0.002 ± 0.045
2,L30M,0.137 ± 0.062
3,L30K,-0.043 ± 0.071
4,R49S,0.04 ± 0.055
5,R49P,-0.106 ± 0.063
6,R49V,0.033 ± 0.044
7,R49L,-0.094 ± 0.048
8,R49Y,-0.088 ± 0.1
9,R49H,-0.223 ± 0.11
10,L33V,-0.04 ± 0.055
11,L33G,-0.554 ± 0.058
12,L33F,-0.209 ± 0.093
13,L33E,-0.452 ± 0.074
14,L33D,-0.344 ± 0.1
15,L33N,-0.971 ± 0.19
16,L33S,-0.487 ± 0.061
17,P41Y,-0.043 ± 0.2
18,P41G,0.064 ± 0.078
19,P41M,-0.262 ± 0.091
20,P41A,-0.144 ± 0.087
21,P41D,0.246 ± 0.12
22,P41L,-0.019 ± 0.059
23,V11H,0.033 ± 0.054
